10 substances from US20220096547A1 can be followed below.

For the assay, the target named is human TLR5 (human) (UniProt O60602). Nature of the assay: cell-based or functional assay.
Sequence of UniProt O60602 (O60602 21-858): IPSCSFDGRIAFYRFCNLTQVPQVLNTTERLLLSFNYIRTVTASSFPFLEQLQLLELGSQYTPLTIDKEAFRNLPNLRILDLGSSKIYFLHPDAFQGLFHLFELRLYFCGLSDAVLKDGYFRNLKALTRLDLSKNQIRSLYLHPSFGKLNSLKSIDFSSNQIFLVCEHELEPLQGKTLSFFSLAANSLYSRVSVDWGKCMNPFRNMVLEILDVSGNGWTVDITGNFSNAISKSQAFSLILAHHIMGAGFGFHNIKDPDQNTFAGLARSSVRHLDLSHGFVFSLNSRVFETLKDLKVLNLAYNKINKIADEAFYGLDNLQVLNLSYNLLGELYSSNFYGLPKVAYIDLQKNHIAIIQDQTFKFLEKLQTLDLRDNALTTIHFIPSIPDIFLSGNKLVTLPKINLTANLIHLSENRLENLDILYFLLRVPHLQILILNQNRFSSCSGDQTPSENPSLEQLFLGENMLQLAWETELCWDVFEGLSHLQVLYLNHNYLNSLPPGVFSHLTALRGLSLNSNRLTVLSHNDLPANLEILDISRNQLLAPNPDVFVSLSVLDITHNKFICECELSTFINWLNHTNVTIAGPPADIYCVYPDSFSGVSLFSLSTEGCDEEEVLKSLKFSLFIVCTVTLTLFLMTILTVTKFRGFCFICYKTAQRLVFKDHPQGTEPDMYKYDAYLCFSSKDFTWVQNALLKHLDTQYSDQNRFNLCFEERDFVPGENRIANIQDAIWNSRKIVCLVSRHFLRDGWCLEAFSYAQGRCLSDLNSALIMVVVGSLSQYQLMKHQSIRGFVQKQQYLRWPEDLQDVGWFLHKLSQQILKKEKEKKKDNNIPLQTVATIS
For “Salmonella typhimurium flagellin fragment Flic-6a (from UniProt P06175 71-493) (ligand)”, the TLR5 activation activity (NF-κB SEAP reporter assay) compared to full-length flagellin was over 50%. The value for “Salmonella typhimurium flagellin fragment Flic-7a (from UniProt P06175 71-493) (ligand)” was over 50%; that for “Salmonella typhimurium flagellin fragment Flic-8a (from UniProt P06175 71-493) (ligand)” was over 50%. In the case of “Salmonella typhimurium flagellin fragment Flic-12a (from UniProt P06175 37-493) (ligand)”, the TLR5 activation activity (NF-κB SEAP reporter assay) compared to full-length flagellin is over 50%. The value for “Salmonella typhimurium flagellin fragment Flic-14a (from UniProt P06175 37-493) (ligand)” was over 50%. As to “Salmonella typhimurium flagellin fragment Flic-15a (from UniProt P06175 37-493) (ligand)”, the TLR5 activation activity (NF-κB SEAP reporter assay) compared to full-length flagellin was over 50%. For “Salmonella typhimurium flagellin fragment Flic-20a (from UniProt P06175 51-493) (ligand)” the value was over 50%; for “Salmonella typhimurium flagellin fragment Flic-21a (from UniProt P06175 51-469) (ligand)”, over 50%.

Regarding “Salmonella typhimurium flagellin fragment Flic-22a (from UniProt P06175 51-493) (ligand)”, the TLR5 activation activity (NF-κB SEAP reporter assay) compared to full-length flagellin was over 50%. For “Salmonella typhimurium flagellin fragment Flic-23a (from UniProt P06175 51-493) (ligand)” the value was over 50%.
